The text below walks through data of article PMC5910400, “Genetically engineered two-warhead evasins provide a method to achieve precision targeting of disease-relevant chemokine subsets” (Scientific Reports, 2018).

B2: P1243 (evasin from Amblyomma americanum), purified, C-terminal StrepII:8xHis tag (natural protein)
chain: ETGRNHTEDNSTEYYDYEEARCACPARHLNNTNGTVLKLLGCHYFCNGTLCTAPDGYPCYNLTAQQVRTLTTYPNTSCAVGVCMKGTCVKNGTMEQCFKTP
B4: CCL3L1 (ligand, human, UniProt P16619 24-93, looked up)
chain: APLAADTPTACCFSYTSRQIPQNFIADYFETSSQCSKPSVIFLTKRGRQVCADPSEEWVQKYVSDLELSA
notes: source: bought: Peprotech
B5: CCL3 (ligand, human, UniProt P10147 24-92, looked up)
chain: SLAADTPTACCFSYTSRQIPQNFIADYFETSSQCSKPGVIFLTKRSRQVCADPSEEWVQKYVSDLELSA
notes: source: bought: Peprotech
B6: CCL5 (ligand, human, UniProt P13501 24-91, looked up)
chain: SPYSSDTTPCCFAYIARPLPRAHIKEYFYTSGKCSNPAVVFVTRKNRQVCANPEKKWVREYINSLEMS
notes: source: bought: Peprotech

The target of assay [1] is B2. Description: BLI; titration; evasin immobilised on the sensor through the C-terminal His tag; chemokine 300 nM to 0.4 nM (CXCL2: 600 nM to 1.2 nM), at least five concentrations; non-interacting reference protein; one-site binding fit or steady state analysis. Particulars: both partners purified.
In the assay “CCL5” the target is B6. Description: cell-based or functional assay.
The target in the assay “CCL3” is B5. Description: cell-based or functional assay.
The assay “CCL3L1” addresses B4. Description: cell-based or functional assay.

B1: CCL1 (ligand, human, UniProt P22362 24-96, looked up)
chain: KSMQVPFSRCCFSFAEQEIPLRAILCYRNTSSICSNEGLIFKLKRGKEACALDTVGWVQRHRKMLRHCPSKRK
notes: source: bought: Peprotech
As to B1, the binding result in assay [1] is reported as “binds”.
Consider B2, for which, in the assay with CCL5, the “mean IC50 (three biological replicates) of inhibition of THP-1 cell migration induced by the EC80 dose of CCL5” value was determined as 8.9e-09 M. Also, the “mean IC50 (three biological replicates) of inhibition of THP-1 cell migration induced by the EC80 dose of CCL3” value in the assay with CCL3 amounted to 6.5e-09 M. Further, in the assay with CCL3L1, the “mean IC50 (three biological replicates) of inhibition of THP-1 cell migration induced by the EC80 dose of CCL3L1” value was found to be 1e-09 M.

B3: CCL22 (ligand, human, UniProt O00626 25-93, looked up)
chain: GPYGANMEDSVCCRDYVRYRLPLRVVKHFYWTSDSCPRPGVVLLTFRDKEICADPRVPWVKMILNKLSQ
notes: source: bought: Peprotech
Consider B3, for which the binding result in assay [1] was “binds”.
Turning to B4, the binding result in assay [1] is reported as “binds”.
On the same count and under the same terms, for B5 the value was “binds”; for B6, “binds”.
